This is an account of results in paper PMC7585440, “Sclerostin inhibits Wnt signaling through tandem interaction with two LRP6 ectodomains” (Nature Communications, 2020).

The target in assay [1] is T1, human LRP6 E1E2 with a C-terminal 10× His tag, labeled with the dye NT-647 (human, UniProt O75581 21-630, dye NT-647 (Monolith NT Protein Labeling kit)).
T1 construct: Low-density lipoprotein receptor-related protein 6 (LRP6), human, ectodomains E1 and E2; the limits P21-P630 are printed for the co-expression construct; the MST construct was cloned into another vector (pAcGP67A); also called Labeled LRP6 E1E2; source: High Five insect cells (pAcGP67A), purified (Ni-NTA, HiTrapQ, SEC), no tag cleavage; not shown: His10, C-terminal, kept
T1 sequence (looked up): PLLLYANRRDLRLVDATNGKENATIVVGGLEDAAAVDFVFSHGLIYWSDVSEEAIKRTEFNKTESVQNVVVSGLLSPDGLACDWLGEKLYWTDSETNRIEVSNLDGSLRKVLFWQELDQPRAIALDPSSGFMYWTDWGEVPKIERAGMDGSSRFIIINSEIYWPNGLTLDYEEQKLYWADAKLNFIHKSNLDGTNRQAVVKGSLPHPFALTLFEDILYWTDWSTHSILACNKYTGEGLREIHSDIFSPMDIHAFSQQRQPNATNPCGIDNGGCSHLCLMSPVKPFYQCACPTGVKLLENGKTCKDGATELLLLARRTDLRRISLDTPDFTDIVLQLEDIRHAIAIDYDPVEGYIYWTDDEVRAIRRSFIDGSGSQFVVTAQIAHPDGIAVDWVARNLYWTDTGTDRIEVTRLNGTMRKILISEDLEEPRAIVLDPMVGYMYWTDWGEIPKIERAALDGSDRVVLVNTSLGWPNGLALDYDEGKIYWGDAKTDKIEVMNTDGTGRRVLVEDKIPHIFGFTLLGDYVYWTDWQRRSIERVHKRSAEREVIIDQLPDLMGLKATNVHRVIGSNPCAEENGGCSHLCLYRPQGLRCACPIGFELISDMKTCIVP
As to the kind of experiment: MST; LRP6 E1E2 or E1 labeled with NT-647 at ~5 nM, unlabeled SOST proteins or peptides titrated; 20 mM Tris-Cl pH 7.0, 200 mM NaCl, 0.5 mg/ml BSA, 0.05% Tween 20; 22 °C; Monolith NT.115 Pico. Conditions: both partners purified.

The target of assay [2] is T2, human LRP6 E1E2 (P21–P630) with a C-terminal 10× His tag (human, UniProt O75581 21-630).
T2 construct: Low-density lipoprotein receptor-related protein 6 (LRP6), human, ectodomains E1 and E2, residues P21-P630; Unlabelled form: crystal, SEC-MALS and fluorescence-SEC; An anti-His-tag antibody was used for the western blots of the fluorescence-SEC experiment; also called LRP6 ectodomains 1 and 2; source: High Five insect cells (baculovirus), secreted, purified (Ni-NTA, HiTrapQ, SEC); co-expressed …
T2 sequence (looked up): T1 sequence (looked up)
As to the kind of experiment: SEC; fluorescence-SEC: purified LRP6 E1E2–Smo-SOST complex injected at 1.5, 1, 0.5 or 0.1 µM on Superdex 200 Increase 10/300 GL; 20 mM Tris pH 7.0, 200 mM NaCl; intrinsic tryptophan fluorescence; approximate KD. Conditions: both partners purified.

B1: human WT SOST with an N-terminal His6-SUMO tag (natural protein, UniProt Q9BQB4 24-213, looked up)
chain: QGWQAFKNDATEIIPELGEYPEPPPELENNKTMNRAENGGRPPHHPFETKDVSEYSCRELHFTRYVTDGPCRSAKPVTELVCSGQCGPARLLPNAIGRGKWWRPSGPDFRCIPDRYRAQRVQLLCPGGEAPRARKVRLVASCKCKRLTRFHNQSELKDFGTEAARPQKGRKPRPRARSAKANQAELENAY
notes: Sclerostin (SOST), human, wild type; Probably residues 24-213 (the truncated constructs begin at Q24 and the protein ends at Y213); Purified WT SOST ran as a doublet that PNGase F turned into one band (N175 likely glycosylated in part); also called Smo-SOST; SOST WT; source: High Five insect cells (pAcGP67A), purified (Ni-NTA, HiTrapQ, SEC), no tag cleavage; not shown: His6, N-terminal, kept; …
As to B1, the Kd is 170 nM in assay [1] and approximately 50 nM in assay [2].
